Assay results taken from patent US20230407267A1, “USES OF PATIENT-DERIVED SCAFFOLDS” (Iscaff Pharma AB, priority 2020, published 2023).

System: MCF7 cells
Experiment: PDS co-culture of MCF7 cells with activated T-lymphocytes, with or without PD1 blockade: viability of MCF7 cells
Format: cell-based, human
Conditions: for % of viable MCF7 cells after 48 hours of co-culture with T-lymphocytes: MCF7 + TA+ pre-incubated with Pembr 100 μg/mL 30 min, relative to only-MCF7 control, average ± SD of 3 technical replicates
Experimental: FIG. 25. PD1 blocking antibody increases the killing capacity of the T-lymphocytes in PDS-dependent manner. T-lymphocytes were activated 20 hours by exposition to CD3/CD28 Dynabeads. […] Then, the co-cultures were incubated for 48 hours. Controls including only MCF7 cells or T-lymphocytes, and 2D cultures were included. (A) Surface expression of PD1 by T-lymphocytes analyzed by FACS. (B) Graph showing the % of viable MCF7 cells after 48 hours of co-culture with T-lymphocytes in 5 different PDSs. Data are relative to their own control with only MCF7 cells and show average±SD of 3 technical replicates.
In addition, in FIG. 13, it is shown how differential expression of PDL1 by MCF7 cells is triggered by different breast cancer PDSs. […] First, T-lymphocytes were activated 20 hours by exposure to CD3/CD28 Dynabeads. […] The blockade of PD1 protein in the T-lymphocytes was confirmed by FACS (FIG. 25A). The T-lymphocytes, with or without PD1 blockade (Pembr) were then added to the PDS cultures, in which the MCF7 cells had been growing for 21 days. The co-cultures were incubated for 48 hours. Control samples included samples with MCF7 cells or T-lymphocytes on their own, and 2D cultures.

Pembrolizumab
% of viable MCF7 cells after 48 hours of co-culture with T-lymphocytes (2D MCF7 culture): 5.5 ± 0.6% | % of viable MCF7 cells after 48 hours of co-culture with T-lymphocytes (PDS13): 31.2 ± 1.7% | killing efficacy of the T-lymphocytes after Pembrolizumab treatment (PDS13 and PDS17, compared to without this treatment): no changes | killing effect of the T-lymphocytes after incubation with Pembrolizumab (PDS14, PDS15 and PDS16, compared to T-lymphocytes without this treatment): higher | % of viable MCF7 cells after 48 hours of co-culture with T-lymphocytes (PDS14): 12.8 ± 2.3% | % of viable MCF7 cells after 48 hours of co-culture with T-lymphocytes (PDS15): 9.5 ± 0.6% | % of viable MCF7 cells after 48 hours of co-culture with T-lymphocytes (PDS16): 9.1 ± 2.5% | % of viable MCF7 cells after 48 hours of co-culture with T-lymphocytes (PDS17): 19.2 ± 4.3% | killing capacity of the T-lymphocytes (in PDS-dependent manner, FIG. 25 legend): increases
